According to patent US20230001013A1, “STABLE MONOMERIC INSULIN FORMULATIONS ENABLED BY SUPRAMOLECULAR PEGYLATION OF INSULIN ANALOGUES” (THE BOARD OF TRUSTEES OF THE LELAND STANFORD JUNIOR …, priority 2019, published 2023):

Tests used:
[1] = Insulin association state by SEC-MALS; type: physicochemical; conditions: for monomer / number average molecular weight (MW): zinc-free
Excerpt: Excipient choice is important, because as in the case of Apidra (glulisine), the absence of zinc is not sufficient to result in an ultra-fast acting insulin formulation. To engineer an insulin formulation that promotes the monomer state, the effects of excipients on insulin association state under zinc-free conditions must be understood. Characterization by size exclusion chromatography with multiple angle light scattering (SEC-MALS) allows us to determine insulin molecular weight in formulation and estimate the fraction of hexamers, dimers and monomers under formulation conditions. […] To select for a mostly monomeric insulin formulation, we evaluated the effect of tonicity agents and preservatives on insulin association state.
Number-averaged molecular weight (MW) and dispersity (Ð=Mw/Mn) of formulations were obtained using size exclusion chromatography (SEC) carried out using a Dionex Ultimate 3000 instrument (including pump, autosampler, and column compartment) outfitted with a Dawn Heleos II Multi Angle Ligh Scattering detector, and a Optilab rEX refractive index detector. The column was a Superose 6 Increase 10/300 GL from GE healthcare. Data was analyzed using Astra 6.0 software.
Controls consisted of either (v) commercial Humalog formulation comprising glycerol (1.6%), meta-cresol (0.315%), dibasic sodium phosphate (0.188%), and zinc (0.00197%), or (vi) commercial Novolog formulation comprising glycerol (1.6%), meta-cresol (0.172%), phenol (0.15%), sodium chloride (0.058%), dibasic sodium phosphate (0.125%), and zinc (0.00196%). Insulin lispro and aspart were injected at a concentration of a minimum […] protein and a volume of 100 μL. A do/dc of 0.186 mL/g was used for all samples.
The molar fraction of monomeric, dimeric and hexameric insulin was determined by fitting experimentally derived number-averaged (Mn) and weight-averaged (Mw) molecular weights determined by SEC-MALS to Equation 1 and Equation 2, where m, d and h, respectively, represent the molar fractions of monomeric, dimeric and hexameric insulin while I represents the molecular weight of monomeric insulin (5831 g/mol). The solver was constrained so that m+d+h=1 while m, d and h remain between 0 and 1.

[2] = reported previously; cited from earlier work
insulin aspart = insulin aspart (Homo sapiens, UniProt P01308, P52D); test: Acridine orange dye displacement competitive binding assay; conditions: unmodified CB[7], AO displacement, one-site competitive binding model; read-out: binding affinity
Protocol: Unmodified CB[7] was purchased from Strem Chemicals and Acridine Orange (AO) was purchased from Sigma-Aldrich. Binding of CB[7] to aspart was assessed using the AO dye displacement assay, as previously described. Briefly, 6 μM of CB[7] and 8 μM AO were combined with 100 μL of aspart samples. Aspart samples were diluted to concentrations of 0, 0.01, 0.1, 0.3, 0.5, 1, 1.5, 2, 3, 4 μm in H2O. Samples were incubated overnight in light-free conditions, and fluorescent spectra were collected on an BioTek SynergyH1 microplate reader, exciting at 485 nm and collecting the resulting fluorescent spectra from 495 to 650 nm. The decay in the peak of AO fluorescent signal was fit to a one-site competitive binding model (GraphPad Prism, version 6.0), using the CB[7]·AO equilibrium constant reported previously (Keq=2×10^5 M^−1), to determine binding constants of unmodified CB[7] to insulin.

[3] = biological target: N-terminal phenylalanine on insulin (Homo sapiens, UniProt P01308); test: Host-guest binding of CB[7]-PEG to insulin
Protocol: Referring to FIGS. 1A and 1B, existing insulin formulations contain a mixture of hexamers, dimers and monomers, which, upon subcutaneous injection, dissociate and are absorbed at different rates, shown diagrammatically in FIG. 1A. Non-covalent PEGylation is enabled by the strong specific binding between CB[7]-PEG and the N-terminal phenylalanine on insulin (KD=0.5 μM). Under high concentrations in formulation insulin will be greater than 98% bound, but after dilution upon subcutaneous injection less than 1% of CB[7]-PEG will remain associated with insulin. This differential absorption results in the rapid onset but long duration of action of these formulations, as indicated in the activity curve in FIG. 1B. […] The formulations described herein are directed to this objective.

[4] = phosphate buffer (pH=7.4), glycerol (2.6%)
[5] = phosphate buffer (pH=7.4), sodium chloride (0.9%)
[6] = phosphate buffer, glycerol (2.6%) and meta-cresol (0.315%)
[7] = phosphate buffer, glycerol (2.6%) and phenoxyethanol (0.85%)

| Substance | monomer [1, 4] [%] | number average molecular weight (MW) [1, 4] [kDa] | monomer [1, 5] [%] | number average molecular weight (MW) [1, 5] [kDa] | monomer [1, 6] [%] | number average molecular weight (MW) [1, 6] [kDa] | monomer [1, 7] [%] | number average molecular weight (MW) [1, 7] [kDa] | other results |
| --- | --- | --- | --- | --- | --- | --- | --- | --- | --- |
| Zinc free insulin: zinc free insulin in pure water |  |  |  |  |  |  |  |  | association state ([1]; in pure water): completely monomeric |
| cucurbit[7]uril [CB[7]] |  |  |  |  |  |  |  |  | Keq [2]: 200000 M⁻¹; Kd (insulin aspart): 540 nM |
| cucurbit[7]uril-poly(ethylene glycol) [CB[7]-PEG] |  |  |  |  |  |  |  |  | Kd [3]: 500 nM; CB[7]-PEG remaining associated with insulin ([3]; after dilution following subcutaneous administration): less than 1%; fraction bound (CB[7]-PEG/insulin complex) ([3]; typical (high) formulation concentrations): greater than 98% |
| insulin aspart | 91.4 | 7.4 | 4.8 | 13 | 71.0 | 9.4 | 85.2 | 7.4 |  |
| insulin lispro | 89.2 | 7.6 | 55.0 | 8.7 | 56.7 | 9.0 | 71.5 | 8.2 |  |
